Reference: publication PMC12370899, “Promiscuous and multivalent interactions between Eps15 and partner protein Dab2 generate a complex interaction network” (Nature Communications, 2025)
Blank lines part the entries; values can stand above or below the binder they belong to.

B1: Dab2_(320–495) (domain or fragment, UniProt P98082 320-495, looked up)
chain: KKENSSSSSTPLSNGPLNGDVDYFGQQFDQISNRTGKQEAQAGPWPFSSSQTQPAVRTQNGVSEREQNGFSVKSSPNPFVGSPPKGLSIQNGVKQDLESSVQSSPHDSIAIIPPPQSTKPGRGRRTAKSSANDLLASDIFAPPVSEPSGQASPTGQPTALQPNPLDLFKTSAPAPV
notes: gene bought from Twist Bioscience, in pET28a; 15N-labelled where it was the observed protein; The S328C mutant was used only for microscopy of droplets and is not written; also called Dab2 fragment; source: E. coli Rosetta (DE3), purified (nickel column, SEC); not shown: His-tag, C-terminal, kept
B2: Eps15 EH123 (EH1-EH2-EH3, the full EH-domain containing region) (domain or fragment, human, UniProt P42566 1-310, looked up)
chain: MAAAAQLSLTQLSSGNPVYEKYYRQVDTGNTGRVLASDAAAFLKKSGLPDLILGKIWDLADTDGKGILNKQEFFVALRLVACAQNGLEVSLSSLNLAVPPPRFHDTSSPLLISGTSAAELPWAVKPEDKAKYDAIFDSLSPVNGFLSGDKVKPVLLNSKLPVDILGRVWELSDIDHDGMLDRDEFAVAMFLVYCALEKEPVPMSLPPALVPPSKRKTWVVSPAEKAKYDEIFLKTDKDMDGFVSGLEVREIFLKTGLPSTLLAHIWSLCDTKDCGKLSKDQFALAFHLISQKLIKGIDPPHVLTPEMIPP
notes: Eps15, UniProt P42566, the three N-terminal EH domains in row; in pET28-6His-GB1; 15N-labelled where it was the observed protein; source: E. coli Rosetta (DE3), purified (nickel column, TEV cleavage, SEC); not shown: 6His, N-terminal, cleaved; GB1, N-terminal, cleaved

What was measured:
Conditions in all cases: both partners purified
[1] = target: B2; assay: NMR titration; competition: equimolar EH123, Eps15IDR and Dab2(320-495) together, observed in turn on 15N EH123, 15N Eps15IDR and 15N Dab2(320-495); NMR buffer pH 6, 25 °C
[2] = target: T1, Eps15IDR (Eps15's own intrinsically disordered region) (human, UniProt P42566 481-896); assay: NMR titration; equimolar unlabelled Eps15IDR (200 µM) added to 200 µM 15N EH123; 1H-15N TROSY-HSQC CSPs and R1rho at 1200 MHz; NMR buffer pH 6, 25 °C
T1 construct: Eps15, UniProt P42566, C-terminal intrinsically disordered region; limits 481-896 from the N-terminal residues 481-521, the overlapping stretches 481-581 to 761-896 and the primer names Eps15_481_Nde1_fw and Eps15_896_Not1_rv; in pET28-6His-GB1; 15N-labelled where it was the observed protein; source: E. coli Rosetta (DE3), purified (nickel column, TEV cleavage, SEC); not shown: 6His, N-terminal, …
T1 sequence (looked up): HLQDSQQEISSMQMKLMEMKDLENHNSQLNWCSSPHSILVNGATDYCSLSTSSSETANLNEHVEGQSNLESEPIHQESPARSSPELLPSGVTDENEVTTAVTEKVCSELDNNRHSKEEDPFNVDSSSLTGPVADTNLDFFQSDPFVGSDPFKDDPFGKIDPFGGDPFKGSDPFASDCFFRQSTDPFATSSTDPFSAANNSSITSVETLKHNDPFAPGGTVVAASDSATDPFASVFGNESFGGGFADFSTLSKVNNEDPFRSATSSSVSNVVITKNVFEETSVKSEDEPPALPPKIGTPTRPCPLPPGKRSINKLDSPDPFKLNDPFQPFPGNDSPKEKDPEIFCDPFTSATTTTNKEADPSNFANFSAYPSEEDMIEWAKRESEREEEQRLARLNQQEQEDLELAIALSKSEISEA

[3] = target: B1; assay: NMR CPMG relaxation dispersion; 100 µM 15N Dab2(320-495) with 10 µM (10%) EH2; 600 and 900 MHz; 12 residues of helixN and the NPF motif fitted globally, two-site exchange model (ChemEx); NMR buffer pH 6, 25 °C

Binder: B1
binding result [1]: binds

Binder: B2
binding result [2]: binds

Kd [3]: 196 µM
B3: Eps15 EH2 domain (domain or fragment, human, UniProt P42566 121-215, looked up)
chain: PWAVKPEDKAKYDAIFDSLSPVNGFLSGDKVKPVLLNSKLPVDILGRVWELSDIDHDGMLDRDEFAVAMFLVYCALEKEPVPMSLPPALVPPSKR
notes: Eps15, UniProt P42566, second EH domain; in pET41c; The NdeI primer puts a start methionine before P121; non-cleavable C-terminal His-tag from pET41c; 15N-labelled where it was the observed protein; source: E. coli Rosetta (DE3), purified (nickel column, SEC); not shown: His-tag, C-terminal, kept
